The data set can be described thus: yeast display, Sf9 membrane polyspecificity reagent, FACS + sequencing; frameworks hold sequencing errors. An outline of the steps:
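After 36–48 hours of galactose induction, yeast (Saccharomyces cerevisiae BJ5465) displaying a synthetic nanobody library were stained at 4 °C for 1 hour with 10% biotinylated, detergent-solubilized Sf9 membrane reagent. Streptavidin microbeads enriched the stained cells before FACS sorting into low and high (top ~1%) gates on anti-HA and streptavidin fluorescence. Each clone's polyreactivity label reflects its gate of origin.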
As to “QVQLVESGGGLVQAGGSLRIRCAASGRIFPYYAMGWYRQAPGKERDLVATITSGGSTYYADTVKGRFTISRDNSKNTVYLQMKSLKPEDTAVYYCAARYPSIYYYRYDFWGQGTQVTVSS”, the “polyreactivity (PSR sort gate)” value was “high polyreactivity”.
In the case of “QVQLVESGGGLVQAGGSLRISCAASGFIFWIYAMGWYRQAPGKEREFVAVITYRGDTTYYADSVKGRFTISRDNAKNTVYLQMNSLKPEDTAVYYCAAYTVQKYGYWGQGTQVTVSS”, the “polyreactivity (PSR sort gate)” value is reported as “low polyreactivity”.
With “QVQLVESGGGLVQAGGSLRISCAASGFTFALYAMGWYRQAPGKERELVAAITRRGGSTYYADSVKGRFTISRDNAKNTVYLQMNSLKPEDTAVYNCAKRERAIKVSRYDSHDYWGQGTQVTVSS” the entry was “high polyreactivity”; with “QVQLVESGGGLVQAGGSLRISCAASGFTFGVYAMGWYRPAPGKEREFVASISFSGGRTYYSDSVKGRFTISRDNAKNTVYLQMNSLKPEDTAVYYCAKRWSADDYWGQGTQVTVSS”, “high polyreactivity”.
“QVQLVESGGGLVQAGGSLRISCAASGFTFKRYAMGWYRQAPGKERELVAAITWRGGSTYYADSVKGRFTISRDNAKNTVYLQMNSLKPEDTAVYYCAAYSYPYWQKRPYDYWGQGTQVTVSS”: the “polyreactivity (PSR sort gate)” value was “high polyreactivity”.
With “QVQLVESGGGLVQAGGSLRISCAASGFTFRNYAMGWYRQAPGKEREFVASISFAGGRTYYADSVKGRFTISRDNAKNTVYLQMNSLKPEDTAVYYCAKKSYSKYDYWGQGTQVTVSS” the entry was “high polyreactivity”; with “QVQLVESGGGLVQAGGSLRISCAASGFTFWLYAMGWYRQAPGKERELVATISWSGGSTYYADSVKGRFTISRDNAKNTVYVQMNSLKPEDTAVYYCATRYRSYSVFGYGYWGQGTQVTVSS”, “high polyreactivity”.
The entry for “QVQLVESGGGLVQAGGSLRISCAASGFTFYYNAMGWYRQAPGKERELVASISSNGTSTYYADSVKGRFTISRDNAKNTVYLQMNSLKPEDTAVYYCNVDIFDPRTYDYWGQGTQVTVSS” is “low polyreactivity”; for “QVQLVESGGGLVQAGGSLRISCAASGGTFVPYAMGRSRQAPGKERELVARISKRGGTTYYADSVKGRFTISRDIGKNTVYLQMNSLKPEDTAVYYCAAVLPARGYYWGLGTQVTVSS” it is “high polyreactivity”; for “QVQLVESGGGLVQAGGSLRISCAASGIIFSPYVMGWYRQAPGKERELVAAITTGDSTNYADSVKGRFTISRDNAKNTVYLQMKSLKPEDSAVYYCNADLYVGYLYYLFDYWGQGTQVSVSS” it is “low polyreactivity”.
The entry for “QVQLVESGGGLVQAGGSLRISCAASGIIFSVYAMAWYRQAPGKERELVAAISYSGGRTYYADSVKGRFTISRDNAKNTVYLQMNSLKPEDTAVYYCAAGFSLYLGFEYWGQGTQVTVSS” is “high polyreactivity”.
For the sequence “QVQLVESGGGLVQAGGSLRISCAASGIIFSYYAMGWYRQAPGKERELVAAIRENGGSTYYADSVKGRFTISRDNAKNTVYLQMNSLKPEDTAVYYCAVDTTYYAGYEYDYWGQGTQVTVSS”, the “polyreactivity (PSR sort gate)” value is given as “low polyreactivity”.
“QVQLVESGGGLVQAGGSLRISCAASGITFKKNDMGWYRQAPGKERELVAAISGRGGSTYYADSVKGRFTISRDNAKNTVYLQMNSLKPEDTAVYYCAADNFKGDSYGTGTYDYWGQGTQVTVSS”: the “polyreactivity (PSR sort gate)” value is listed as “high polyreactivity”.
As to “QVQLVESGGGLVQAGGSLRISCAASGITFYANTMGWYRQAPGKEREFVAAISGIGGSTYYADSVKGRFAISRDNAKNTVYLQMNSLKPEDPAVYYCNADVYYFLFGTFDYWGQGTQVTVSS”, the “polyreactivity (PSR sort gate)” value is on record as “low polyreactivity”.
The entry for “QVQLVESGGGLVQAGGSLRISCAASGITYKEYAMGWYRQAPGKERELVAAISISGGSTYYADSVKGRFTISRDNAKNTFYLQMNSLKPEDTAVYFCAADYAEYEYGDYYWGQGTQVTVSS” is “low polyreactivity”.
In the case of “QVQLVESGGGLVQAGGSLRISCAASGLIFNFNALGWYRQAPGKERELVAAITRSGSTDYADSVKGRFTISRDNAKNTVYLQLNSLKPEDTAVYYCAAEFYLRRFKVTKRYWFDYWGQGTQVTVSS”, the “polyreactivity (PSR sort gate)” value is reported as “low polyreactivity”.
With “QVQLVESGGGLVQAGGSLRISCAASGLTLTSNDMGWYRQAPGKEREFVASITWSGGSTSYADSVKGRFTISRDNAKNTVYLQMNSLKPEDTAVYYCAARPRYFSKSWRGYYYWGQGTQVNVSS”, the “polyreactivity (PSR sort gate)” value was “high polyreactivity”.
Consider “QVQLVESGGGLVQAGGSLRISCAASGLTSYSYAMGWYRQAPGKERELVAAITVNGGRTYYADSVKGRFTISRDNAKNTVYLQMNSLKPEDTAVYYCAAREVTGRPRSYYYWGQGTQVTVSS”, for which the “polyreactivity (PSR sort gate)” value is “low polyreactivity”.
The entry for “QVQLVESGGGLVQAGGSLRISCAASGNIIRKYAMGWYRQAPGKEREFVAAISSSGGRTYYADSVKGRFTISRDNAKNTVYLQMNSLKPEDTAGYYCARPYSYAYVLGDYWGQGTQVTVSS” is “high polyreactivity”.
As to “QVQLVESGGGLVQAGGSLRISCAASGRIFFIKAMGWYRQAPGKERELVAAIRRDTRTYYADSVKGRFTISRDNAKNTVYLQMNSLKPEDTAVYYCAADDPWHYDFDYWGQGTQVTVSS”, the “polyreactivity (PSR sort gate)” value is reported as “low polyreactivity”.
The entry for “QVQLVESGGGLVQAGGSLRISCAASGRIFGFNAMGWYRQAPGKERELVAAISRTSSSTYYADSVKGRFTISRDNAKNTVYLQMNSLKPEDTAVYYCATRYFTHGKYDYWGQGTQVTVSS” is “high polyreactivity”; for “QVQLVESGGGLVQAGGSLRISCAASGRIFNSYAMGWYRQAPGKERELVASISTSGGSTYYADSVKGRFTISRDNAKNTVYLQMNSLKPEDTAVYYCARRYYPKFWYTYDSWGQGTQVTVSS” it is “low polyreactivity”.
On to “QVQLVESGGGLVQAGGSLRISCAASGRIFPFYAMGWYRQAPGKDRELVAAIRSGGGSTYYADSVKGRFTISRDNAKKTVYLQRNSLKPEDTAVYYCTARGRLGSAGRYNYWGQGTQVTVSS”, for which the “polyreactivity (PSR sort gate)” value is reported as “high polyreactivity”.
For the sequence “QVQLVESGGGLVQAGGSLRISCAASGRIFQYYSMGWYRQAPGKERELLAAMSSRGGSTTYADSVKGRFTISRDNAKNTVYLQMNRLKPEDTAVYYCASDWYYYPQYRQRYYYWGQGTQVTVSS”, the “polyreactivity (PSR sort gate)” value was “high polyreactivity”.
Take “QVQLVESGGGLVQAGGSLRISCAASGRIFTTYAMGWYRQAPGKEREFVADITLSGSSTYYADSVKGRFTISRDNAKNTVYLQMNSLKPEDTAVYYCAARTGRYYRRYDYWGQGTQETVSS”: the “polyreactivity (PSR sort gate)” value is “high polyreactivity”.
The entry for “QVQLVESGGGLVQAGGSLRISCAASGRIFVGYAMGWYRQAPGKERELVAAINRSGSSTYYADSVKGRFTISRDNAKNTVYLQMNSLKPEDTAVYYCNARSGNRYGPRYDYWGQGTQVTVSS” is “high polyreactivity”; for “QVQLVESGGGLVQAGGSLRISCAASGRIFVSNAMGWYRQAPGKDRELVAAISKSGARTSYADSVKGRFTISRDNAKNTVYLQMNSLKPEDTAVYYCAAPVRWSGGGEYPNYYWGQGTQVTVSS” it is “high polyreactivity”; for “QVQLVESGGGLVQAGGSLRISCAASGRIFYSNTMGWYRQAPGKEREVVARIDTGGGSTYADSVKGRFTISRDNAKKSVYLEMHSLKPADTAVYYCYKKGRWRSWGSTSLVSMDYWGQGTQVTVSS” it is “low polyreactivity”.
The entry for “QVQLVESGGGLVQAGGSLRISCAASGRILYRYAMGRYRQAPGKERELVAAITWRGGTTYYADSVKGRFTISRDNAKNTVYLQMNSLKPEDTAVYYCNADWWRTLESDYWGQGTQVTVSS” is “low polyreactivity”; for “QVQLVESGGGLVQAGGSLRISCAASGRTFECYAMGWSRQAPGKERELVAAISSGGSTYYADSVKGRFTISRDNAKNTVYLQMNSLKPEDTAVYYCNVLSQQRTARYDYWGQGTQVTVSS” it is “low polyreactivity”.
Take “QVQLVESGGGLVQAGGSLRISCAASGRTFPGNAMGCYRQAPGKERELVAAISYSGGRTYYADSVKGRFTISRDNAKNTVYLQMNSLNPEDTAVYYCNRTPYSDYVFAYDYWGQGTQVTVSS”: the “polyreactivity (PSR sort gate)” value is “high polyreactivity”.
The entry for “QVQLVESGGGLVQAGGSLRISCAASGRTFQFNVMGWYRQAPGKERELVASIRSGGSTNYADSVKGRFTISRDNAKNTVYLQMNSLKPEDTAVYYCAARVASPYYRYDYWGQGTQVTVSS” is “low polyreactivity”; for “QVQLVESGGGLVQAGGSLRISCAASGRTFSNYAMGWYRQAPGKERELVAAISGSGGSTRYADSVKGRFTISRDNANITVYLQMNSLKPEDTAVYYCAARGAGPLHNHYSWGQGTQVTVSS” it is “high polyreactivity”; for “QVQLVESGGGLVQAGGSLRISCAASGRTFYRNAMGWNSKAPGKERELVAAIRRSDGSTYYADSVKGRFTISRDNAKNTVYLQMNSLKPEDTAVYYCAAGQGSRNLYYYWGQGTQVTVSS” it is “high polyreactivity”.
The entry for “QVQLVESGGGLVQAGGSLRISCAASGRTIDSYAMGWYRQAPGKERELVAAISWGGGSTYYADSVKGRFTISRDNAKNTVYLQMNSLKPEDTAVYYCAARWNYTEFDYWGQGTQVTVSS” is “low polyreactivity”; for “QVQLVESGGGLVQAGGSLRISCAASGRTLFGYAMGWYRQAPGKERELVAAITYGATSTYADSVKGRFTISRDNAKNTVYLQMNSLKPEDTAVYYCNAYTPTDGFDYWGQGTQVTVSS” it is “low polyreactivity”; for “QVQLVESGGGLVQAGGSLRISCAASGRTLGYNAMGWYRQAPGKERELVAAISWSGGSTYYADSVKGRFTISRDNAKNTVYLQMNSLNPEDTAVYYCAARNNRYPLYNYWGQGTQVTVSS” it is “low polyreactivity”.
The entry for “QVQLVESGGGLVQAGGSLRISCAASGRTLTSNAMGWYRQAPGKERELVASITGSSSNTYYADSVKGRFTISRDNAKNTVYLQMNSLKPEDTAVSYCAAEVGFPWWRLDEYWGQGTQVTVSS” is “low polyreactivity”.
On to “QVQLVESGGGLVQAGGSLRISCAASGRTSHAYAMGWYRQAPGKERELVAAITRVTSTYYADSVKGRFTISRDNAKNTVYLQMNSLKPEDTAVYYCAAGKGYYRSDYWGQGTQVTVSS”, for which the “polyreactivity (PSR sort gate)” value is “low polyreactivity”.
Turning to “QVQLVESGGGLVQAGGSLRISCAASGSIFRGNAMGWYRQAHGKERELVAAITRGVSTYYADSVKGRFTISRDNAKNTVYLQMNSLKPEDTAVYYCAKPYWWGYYSWGQGSQVTVSS”, the “polyreactivity (PSR sort gate)” value is reported as “high polyreactivity”.
The entry for “QVQLVESGGGLVQAGGSLRISCAASGSIFRGYGMGWDRQAPGKERELVAAINYSGGSTYYADSVKGRYTISRDNAKNTVYLQMNSLKPEDTAVYYCNKVYYRQRGEYYYWGQGTQVTVSS” is “high polyreactivity”.

The values are drawn from the nanobody polyreactivity screen of Harvey et al. (2022).
